{"source": "patent US8551717B2", "about": "“Method for determining sumoylation” (Medizinische Hochschule Hannover, priority 2008, dated 2013)", "type_in_all_cases": "cell-based", "key": {"CRSP9-U": {"molecular_target": "T1, CRSP9-U (Homo sapiens, UniProt O43513+P63279)", "T1 construct": "Ubc9 (fusion partner); expressed in transfected cells; host or cells: HEK293", "T1 sequence (O43513+P63279 fused)": "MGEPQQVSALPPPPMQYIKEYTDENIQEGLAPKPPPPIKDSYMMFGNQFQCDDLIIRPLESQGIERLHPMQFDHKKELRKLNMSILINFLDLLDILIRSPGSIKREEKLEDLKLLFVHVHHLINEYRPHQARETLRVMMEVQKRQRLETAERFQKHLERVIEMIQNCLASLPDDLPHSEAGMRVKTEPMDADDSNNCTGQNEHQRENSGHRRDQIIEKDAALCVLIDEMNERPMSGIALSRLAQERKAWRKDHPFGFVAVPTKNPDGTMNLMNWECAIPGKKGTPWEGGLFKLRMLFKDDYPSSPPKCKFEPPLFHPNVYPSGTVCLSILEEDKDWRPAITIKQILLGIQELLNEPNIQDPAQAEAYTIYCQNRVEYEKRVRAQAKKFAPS", "test": "Trans-SUMOylation by CRSP9-U", "set-up": "key: (++), strong TransSUMOylation; (+), TransSUMOylation; (+/−) weak TransSUMOylation; (−) no detectable TransSUMOylation", "conditions": "protein 2 construct coexpressed with CRSP9-U and EGFP-SUMO1 in HEK293; western blot; Table 2", "description": "(§1) To identify new SUMOylation substrates and to study the function of SUMOylation the Ubc9/substrate dimerisation-dependent SUMOylation system (USDDS) was developed which consists of fusions of the SUMOylation substrate and of the SUMO-conjugating enzyme Ubc9 to the chemically activatable heterodimerisation domains FKBP and FRB, respectively, as shown in FIG. 2. When the substrate protein fused to FKBP is coexpressed with Ubc9-FRB, treatment of HEK293 cells with the rapamycin-related dimerizer AP21967 induces SUMOylation of the substrate protein fused to FKBP at its specific SUMOylation site. […] Dependent on an EcoRl site in the coding sequence, seven C-terminal amino acids of the human STAT1a in the STAT1-FKBP/FRB fusion proteins are missing. For the SUMOylation analysis HEK293 (human embryonic kidney cells) cells have been used. HEK293 cells were cultured in Dulbecco's modified Eagle's medium with high glucose, complemented with 10% fetal calf serum, 2 mM L-glutamine, 100 U/ml penicillin and […] streptomycin. […]\n(§2) As shown above, the SUMOylation of a protein of interest can be induced by the heterodimerisation with a binding protein fused to Ubc9. […] Therefore the protein pairs were coexpressed with EGFP-SUMO1 in HEK293 cells and after 24h the transfectants were lysed and the protein extracts were analyzed in western blots. […]"}, "U-MK5": {"molecular_target": "T2, U-MK5 (Homo sapiens, UniProt P63279+Q8IW41)", "T2 construct": "expressed in transfected cells; host or cells: HEK293", "T2 sequence (P63279+Q8IW41 fused)": "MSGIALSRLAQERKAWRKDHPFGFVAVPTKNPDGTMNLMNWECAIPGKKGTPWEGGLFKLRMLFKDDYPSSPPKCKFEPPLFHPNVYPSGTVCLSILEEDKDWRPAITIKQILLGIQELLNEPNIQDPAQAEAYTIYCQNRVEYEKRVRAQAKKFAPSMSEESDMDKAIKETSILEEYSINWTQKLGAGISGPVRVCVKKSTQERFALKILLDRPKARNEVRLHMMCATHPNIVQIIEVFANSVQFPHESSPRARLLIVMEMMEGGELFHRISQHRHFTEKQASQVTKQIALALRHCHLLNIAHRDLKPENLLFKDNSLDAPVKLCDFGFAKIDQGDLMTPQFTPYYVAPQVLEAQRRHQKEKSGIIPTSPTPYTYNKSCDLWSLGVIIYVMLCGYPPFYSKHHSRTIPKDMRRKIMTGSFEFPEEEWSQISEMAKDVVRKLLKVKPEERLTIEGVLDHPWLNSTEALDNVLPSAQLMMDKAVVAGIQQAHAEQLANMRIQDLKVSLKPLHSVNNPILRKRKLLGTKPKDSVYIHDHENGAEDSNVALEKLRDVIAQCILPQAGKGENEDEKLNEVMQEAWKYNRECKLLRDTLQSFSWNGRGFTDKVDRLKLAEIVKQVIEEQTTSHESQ", "test": "Trans-SUMOylation by U-MK5", "set-up": "key: (++), strong TransSUMOylation; (+), TransSUMOylation; (+/−) weak TransSUMOylation; (−) no detectable TransSUMOylation", "conditions": "protein 2 construct coexpressed with U-MK5 and EGFP-SUMO1 in HEK293; western blot; Table 2", "description": "To identify new SUMOylation substrates and to study the function of SUMOylation the Ubc9/substrate dimerisation-dependent SUMOylation system (USDDS) was developed which consists of fusions of the SUMOylation substrate and of the SUMO-conjugating enzyme Ubc9 to the chemically activatable heterodimerisation domains FKBP and FRB, respectively, as shown in FIG. 2. When the substrate protein fused to FKBP is coexpressed with Ubc9-FRB, treatment of HEK293 cells with the rapamycin-related dimerizer AP21967 induces SUMOylation of the substrate protein fused to FKBP at its specific SUMOylation site. […] Dependent on an EcoRl site in the coding sequence, seven C-terminal amino acids of the human STAT1a in the STAT1-FKBP/FRB fusion proteins are missing. For the SUMOylation analysis HEK293 (human embryonic kidney cells) cells have been used. HEK293 cells were cultured in Dulbecco's modified Eagle's medium with high glucose, complemented with 10% fetal calf serum, 2 mM L-glutamine, 100 U/ml penicillin and […] streptomycin. We performed transfection of HEK293 cells using the polyethylenimine transfection reagent. HEK293 cells of a fresh confluent 10 cm plate were transferred on a 12-well plate. After 12-24 h incubation about 70% cell confluence is reached. For each well 45 μl of serum/antibiotic free DMEM medium is mixed with 750 ng of the transfection-purity expression vector DNA (all together 47 μl) and vortexed. Then, 3 μl of vortexed polyethylenimin stock solution (1 mg/ml) is added and the mixture is vortexed. After incubation at room temperature for 10 min 450 μl fresh DMEM with antibiotics is added to the mixture and vortexed. The medium on the cells was then completely removed and immediately, the 500 μl transfection mix was added carefully to each well. The 12 well plate was rocked to ensure a proper distribution of the DNA/transfection reagent complex. After an incubation of the cells for 24 h at a 37° C. in a humidified CO2-incubator (5%) the cells were lysed in 150 μl Laemmli (2×) gel loading buffer (160 mM Tris-HCL, pH 6.8, 4% (w/v) sodium dodecyl sulphate (SDS), 20% (v/v) glycerol, 0.5% β-mercaptoethanol (v/v), 0.008% (w/v) bromophenol blue) and incubated for 10 min at 95° C. For western blot analysis the proteins were separated by SDS-PAGE, blotted on a PVDF membrane and developed with specific primary antibodies (α-Ubc9 (H81, Santa Cruz), α-pY701-STAT1 (Tyr701, Cell Signaling), α-STAT1 (Cell Signaling), α-p53 (1C12, Cell Signaling), α-SUMO1 (Cell Signaling), a horseradish peroxidase (HRP)-conjugated secondary antibody (different companies), the ECL+ (Amersham) or Immobilon™ Western (Millipore) and the LAS-3000 imaging system (Fuji).\nAs shown above, the SUMOylation of a protein of interest can be induced by the heterodimerisation with a binding protein fused to Ubc9. To find out if Trans-SUMOylation is useful for the characterisation of common protein interactions, protein binding pairs well known from the literature or found in two hybrid screens. […] Therefore the protein pairs were coexpressed with EGFP-SUMO1 in HEK293 cells and after 24h the transfectants were lysed and the protein extracts were analyzed in western blots.\nProtein-protein interactions described in the cited references were tested for Trans-SUMOylation. Each specific protein-protein interaction was tested by coexpression of different combinations of protein 1 fused to Ubc9 (U) with protein 2 mostly fused two a tag (HA, FLAG, Myc, GST, ST). (++), strong TransSUMOylation; (+), TransSUMOylation; (+/−) weak TransSUMOylation; (−) no detectable TransSUMOylation; (MEKK1ca) the activated MAP3 kinase MEKK1, that can enhance protein SUMOylation, was coexpressed.\nProtein-protein interaction of each pair of protein 1/protein 2 was tested by coexpression of different combinations of a protein 1 fused to Ubc9 (U) with protein 2 mostly fused two a Tag (HA, FLAG, GST, ST). […]"}, "ERK2-U": {"molecular_target": "T3, ERK2-U (Homo sapiens, UniProt P28482+P63279)", "T3 construct": "expressed in transfected cells; host or cells: HEK293", "T3 sequence (P28482+P63279 fused)": "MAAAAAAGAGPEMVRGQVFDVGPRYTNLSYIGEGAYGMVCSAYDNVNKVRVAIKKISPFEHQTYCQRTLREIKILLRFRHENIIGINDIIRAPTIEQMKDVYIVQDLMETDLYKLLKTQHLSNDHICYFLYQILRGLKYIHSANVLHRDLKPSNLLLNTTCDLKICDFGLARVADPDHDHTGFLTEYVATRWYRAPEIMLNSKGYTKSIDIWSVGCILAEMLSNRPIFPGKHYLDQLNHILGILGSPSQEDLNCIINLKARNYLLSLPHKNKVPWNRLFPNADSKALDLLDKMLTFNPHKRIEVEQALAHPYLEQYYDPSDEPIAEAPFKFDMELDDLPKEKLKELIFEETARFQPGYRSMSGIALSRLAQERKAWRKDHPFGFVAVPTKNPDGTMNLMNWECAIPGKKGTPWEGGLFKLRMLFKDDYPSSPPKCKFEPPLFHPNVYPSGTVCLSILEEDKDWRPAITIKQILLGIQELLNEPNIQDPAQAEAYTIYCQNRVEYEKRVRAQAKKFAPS", "test": "Trans-SUMOylation by ERK2-U", "conditions": "protein 2 construct coexpressed with ERK2-U and EGFP-SUMO1 in HEK293; western blot; Table 2"}, "U-MEK2": {"molecular_target": "T4, U-MEK2 (Homo sapiens, UniProt P36507+P63279)", "T4 construct": "expressed in transfected cells; host or cells: HEK293", "test": "Trans-SUMOylation by U-MEK2", "set-up": "key: (++), strong TransSUMOylation; (+), TransSUMOylation; (+/−) weak TransSUMOylation; (−) no detectable TransSUMOylation", "conditions": "protein 2 construct coexpressed with U-MEK2 and EGFP-SUMO1 in HEK293; western blot; Table 1", "description": "as §1, §2"}, "U-p38α": {"molecular_target": "T5, U-p38α (Homo sapiens, UniProt P63279+Q16539)", "T5 construct": "expressed in transfected cells; host or cells: HEK293", "T5 sequence (P63279+Q16539 fused)": "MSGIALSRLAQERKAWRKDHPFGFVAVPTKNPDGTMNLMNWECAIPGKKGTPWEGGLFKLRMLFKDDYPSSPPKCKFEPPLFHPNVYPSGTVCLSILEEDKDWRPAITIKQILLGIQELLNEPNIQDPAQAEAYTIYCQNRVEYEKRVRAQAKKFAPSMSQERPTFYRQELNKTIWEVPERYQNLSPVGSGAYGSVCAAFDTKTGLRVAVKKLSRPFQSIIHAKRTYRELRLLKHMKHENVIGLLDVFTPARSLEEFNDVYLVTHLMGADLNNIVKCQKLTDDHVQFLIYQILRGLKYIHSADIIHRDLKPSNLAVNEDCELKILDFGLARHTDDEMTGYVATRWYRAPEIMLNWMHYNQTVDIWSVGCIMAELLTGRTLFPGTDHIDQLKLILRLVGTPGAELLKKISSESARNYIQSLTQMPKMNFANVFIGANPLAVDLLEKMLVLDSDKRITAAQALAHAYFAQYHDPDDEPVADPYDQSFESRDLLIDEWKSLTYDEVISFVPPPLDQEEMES", "test": "Trans-SUMOylation by U-p38α", "conditions": "protein 2 construct coexpressed with U-p38α and EGFP-SUMO1 in HEK293; western blot; Table 1"}, "MEK2-U": {"molecular_target": "T6, MEK2-U (Homo sapiens, UniProt P36507+P63279)", "T6 construct": "expressed in transfected cells; host or cells: HEK293", "test": "Trans-SUMOylation by MEK2-U", "set-up": "key: (++), strong TransSUMOylation; (+), TransSUMOylation; (+/−) weak TransSUMOylation; (−) no detectable TransSUMOylation", "conditions": "protein 2 construct coexpressed with MEK2-U and EGFP-SUMO1 in HEK293; western blot; Table 1", "description": "as §1, §2"}, "U-ERK2": {"molecular_target": "T7, U-ERK2 (Homo sapiens, UniProt P28482+P63279)", "T7 construct": "expressed in transfected cells; host or cells: HEK293", "T7 sequence (P63279+P28482 fused)": "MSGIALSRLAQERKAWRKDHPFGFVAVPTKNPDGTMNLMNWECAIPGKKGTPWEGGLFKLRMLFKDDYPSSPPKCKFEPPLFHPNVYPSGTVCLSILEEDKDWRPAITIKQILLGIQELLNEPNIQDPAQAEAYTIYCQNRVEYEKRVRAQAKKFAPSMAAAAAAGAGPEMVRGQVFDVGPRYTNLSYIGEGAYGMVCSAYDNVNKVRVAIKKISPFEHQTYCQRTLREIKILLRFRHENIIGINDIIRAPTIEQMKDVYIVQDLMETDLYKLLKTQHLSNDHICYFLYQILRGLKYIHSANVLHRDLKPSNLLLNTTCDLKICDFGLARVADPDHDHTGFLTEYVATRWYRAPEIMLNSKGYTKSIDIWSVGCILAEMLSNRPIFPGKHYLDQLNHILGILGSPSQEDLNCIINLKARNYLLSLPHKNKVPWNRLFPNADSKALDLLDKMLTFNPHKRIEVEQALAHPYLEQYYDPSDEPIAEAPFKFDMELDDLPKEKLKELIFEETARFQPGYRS", "test": "Trans-SUMOylation by U-ERK2", "conditions": "protein 2 construct coexpressed with U-ERK2 and EGFP-SUMO1 in HEK293; western blot; Table 2"}, "U-TAF10": {"molecular_target": "T8, U-TAF10 (Homo sapiens, UniProt P63279+Q12962)", "T8 construct": "Ubc9 (fusion partner); expressed in transfected cells; host or cells: HEK293", "T8 sequence (P63279+Q12962 fused)": "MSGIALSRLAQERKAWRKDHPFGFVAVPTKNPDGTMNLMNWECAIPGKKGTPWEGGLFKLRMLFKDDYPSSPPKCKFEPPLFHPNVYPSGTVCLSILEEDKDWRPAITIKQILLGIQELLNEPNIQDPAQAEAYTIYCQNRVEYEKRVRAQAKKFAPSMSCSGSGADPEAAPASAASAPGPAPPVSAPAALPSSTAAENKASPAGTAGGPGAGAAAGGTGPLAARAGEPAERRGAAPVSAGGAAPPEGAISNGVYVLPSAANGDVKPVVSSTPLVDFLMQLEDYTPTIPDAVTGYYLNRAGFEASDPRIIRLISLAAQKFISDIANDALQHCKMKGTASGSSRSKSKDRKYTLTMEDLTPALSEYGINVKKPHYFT", "test": "Trans-SUMOylation by U-TAF10", "set-up": "key: (++), strong TransSUMOylation; (+), TransSUMOylation; (+/−) weak TransSUMOylation; (−) no detectable TransSUMOylation", "conditions": "protein 2 construct coexpressed with U-TAF10 and EGFP-SUMO1 in HEK293; western blot; Table 2", "description": "as §1, §2"}, "MK2-U": {"molecular_target": "T9, MK2-U (Homo sapiens, UniProt P49137+P63279)", "T9 construct": "expressed in transfected cells; host or cells: HEK293", "T9 sequence (P49137+P63279 fused)": "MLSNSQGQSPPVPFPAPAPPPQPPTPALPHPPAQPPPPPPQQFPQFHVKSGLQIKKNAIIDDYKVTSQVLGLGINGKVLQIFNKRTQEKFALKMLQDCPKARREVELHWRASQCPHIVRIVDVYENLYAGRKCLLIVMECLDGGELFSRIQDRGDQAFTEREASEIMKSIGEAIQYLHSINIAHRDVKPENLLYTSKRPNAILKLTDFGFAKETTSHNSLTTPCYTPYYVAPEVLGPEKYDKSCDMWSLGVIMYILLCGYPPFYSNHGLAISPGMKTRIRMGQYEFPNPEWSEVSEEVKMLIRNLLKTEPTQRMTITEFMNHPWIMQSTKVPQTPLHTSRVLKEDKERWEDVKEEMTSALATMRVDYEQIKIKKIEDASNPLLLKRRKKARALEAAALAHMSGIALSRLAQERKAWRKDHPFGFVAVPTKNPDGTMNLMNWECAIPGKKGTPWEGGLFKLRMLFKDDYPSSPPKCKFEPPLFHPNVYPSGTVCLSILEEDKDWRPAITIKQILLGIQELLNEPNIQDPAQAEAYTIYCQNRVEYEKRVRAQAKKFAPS", "test": "Trans-SUMOylation by MK2-U", "conditions": "protein 2 construct coexpressed with MK2-U and EGFP-SUMO1 in HEK293; western blot; Table 2"}, "U-CDC37": {"molecular_target": "T10, U-CDC37 (Homo sapiens, UniProt P63279+Q16543)", "T10 construct": "expressed in transfected cells; host or cells: HEK293", "T10 sequence (P63279+Q16543 fused)": "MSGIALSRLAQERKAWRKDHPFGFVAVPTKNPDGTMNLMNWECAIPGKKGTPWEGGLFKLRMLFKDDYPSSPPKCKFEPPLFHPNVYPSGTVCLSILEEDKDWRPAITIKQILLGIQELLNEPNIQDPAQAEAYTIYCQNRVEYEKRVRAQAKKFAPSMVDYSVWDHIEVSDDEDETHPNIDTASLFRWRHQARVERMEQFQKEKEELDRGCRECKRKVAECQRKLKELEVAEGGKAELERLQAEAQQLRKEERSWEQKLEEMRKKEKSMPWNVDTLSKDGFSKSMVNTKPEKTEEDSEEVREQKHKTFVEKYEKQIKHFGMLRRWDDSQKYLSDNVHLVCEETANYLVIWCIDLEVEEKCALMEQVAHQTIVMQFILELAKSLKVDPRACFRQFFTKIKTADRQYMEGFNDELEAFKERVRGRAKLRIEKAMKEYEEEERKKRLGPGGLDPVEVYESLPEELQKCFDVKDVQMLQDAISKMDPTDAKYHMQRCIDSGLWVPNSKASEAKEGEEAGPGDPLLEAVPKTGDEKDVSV", "test": "Trans-SUMOylation by U-CDC37", "set-up": "key: (++), strong TransSUMOylation; (+), TransSUMOylation; (+/−) weak TransSUMOylation; (−) no detectable TransSUMOylation", "conditions": "protein 2 construct coexpressed with U-CDC37 and EGFP-SUMO1 in HEK293; western blot; Table 2", "description": "as §1, §2"}, "CDK4-U": {"molecular_target": "T11, CDK4-U (Homo sapiens, UniProt P11802+P63279)", "T11 construct": "expressed in transfected cells; host or cells: HEK293", "T11 sequence (P11802+P63279 fused)": "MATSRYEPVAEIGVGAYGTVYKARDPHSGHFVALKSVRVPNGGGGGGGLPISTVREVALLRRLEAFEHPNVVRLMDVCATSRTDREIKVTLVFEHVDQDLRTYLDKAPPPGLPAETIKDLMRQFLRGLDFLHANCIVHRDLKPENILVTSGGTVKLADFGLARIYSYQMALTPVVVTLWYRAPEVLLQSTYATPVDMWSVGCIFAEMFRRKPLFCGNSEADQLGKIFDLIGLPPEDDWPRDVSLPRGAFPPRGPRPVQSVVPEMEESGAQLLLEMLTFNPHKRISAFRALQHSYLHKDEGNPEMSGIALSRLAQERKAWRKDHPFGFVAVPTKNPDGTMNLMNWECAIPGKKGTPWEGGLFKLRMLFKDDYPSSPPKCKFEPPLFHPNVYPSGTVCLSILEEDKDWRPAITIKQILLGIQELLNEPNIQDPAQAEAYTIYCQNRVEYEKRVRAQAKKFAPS", "test": "Trans-SUMOylation by CDK4-U", "set-up": "key: (++), strong TransSUMOylation; (+), TransSUMOylation; (+/−) weak TransSUMOylation; (−) no detectable TransSUMOylation", "conditions": "protein 2 construct coexpressed with CDK4-U and EGFP-SUMO1 in HEK293; western blot; Table 1", "description": "as §1, §2"}}, "data": [{"substance": "GST-CRSP9: CRSP9 fused to GST tag", "values": [{"measurement": "Trans-SUMOylation", "setting": "CRSP9-U", "value": "−"}]}, {"substance": "GST-ERK2: ERK2 fused to GST tag", "values": [{"measurement": "Trans-SUMOylation", "setting": "U-MK5", "value": "−"}, {"measurement": "Trans-SUMOylation", "setting": "ERK2-U", "value": "−"}, {"measurement": "Trans-SUMOylation", "setting": "U-MEK2", "value": "+"}, {"measurement": "Trans-SUMOylation", "setting": "U-p38α", "value": "−"}, {"measurement": "Trans-SUMOylation", "setting": "MEK2-U", "value": "+"}, {"measurement": "Trans-SUMOylation", "setting": "U-ERK2", "value": "−"}]}, {"substance": "GST-TAF10: TAF10 fused to GST tag", "values": [{"measurement": "Trans-SUMOylation", "setting": "U-TAF10", "value": "(+/−)"}, {"measurement": "Trans-SUMOylation", "setting": "MK2-U", "value": "−"}]}, {"substance": "GST-CDC37: CDC37 fused to GST tag", "values": [{"measurement": "Trans-SUMOylation", "setting": "U-CDC37", "value": "+"}, {"measurement": "Trans-SUMOylation", "setting": "CDK4-U", "value": "+"}]}]}
